Assay results published in the supplement of paper PMC9170038.

Test system: MS2 coat protein
Assay: apparent KD of MS2 coat protein; designed switch direction (-1 OFF switch, 1 ON switch): -1; higher = weaker reporter binding
Outline: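 Designed RNA switches were transcribed on Illumina chips by stalled E. coli RNA polymerase and titrated with SNAP-549-labelled MS2 coat protein from 0.7 or 1.5 nM, doubling to 3 µM. Step length ran from 0.8–1.5 h at the lowest concentration to 10–20 min at the highest. The apparent KD is the median over clusters for each design, from curve-fitted normalised cluster fluorescence.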

[1] = Eterna round: R95, input ligand: FMN 200 uM
[2] = Eterna round: R95, input ligand: microRNA oligo, concentration not stated
[3] = Eterna round: R95, input ligand: none
[4] = input ligand: microRNA oligo, concentration not stated

| Sequence | apparent KD of MS2 coat protein [1] [nM] | apparent KD of MS2 coat protein [2] [nM] | apparent KD of MS2 coat protein [3] [nM] | apparent KD of MS2 coat protein (input ligand: FMN 200 uM) [nM] | apparent KD of MS2 coat protein (input ligand: none) [nM] | apparent KD of MS2 coat protein [4] [nM] |
| --- | --- | --- | --- | --- | --- | --- |
| UCAUGUAUGUAGGAUAUCGAUGUCCUCGGACAUCGAGAAGGACGUACAUGAGGAUCACCCAUGUAACUUGCAUG [Exclusion 6 - B - 11:c] (puzzle: Exclusion 6) | 23 | 14 | 23.4 |  |  |  |
| CUUUUGUGAGGAUAUCAGUAGUAAAAAAAUAAAAUUUCUACUGAGAAGGCACAUGAGGAUCACCCAUGUUCCUC [salish99_ex4_r3_026] (puzzle: Exclusion 4) |  | 34.5 |  |  |  |  |
| UUUAGUAUCUAGGAUAUCUAGUACAUAGUAUCUAGAGAAGGAGAUACAUGAGGAUCACCCAUGUUCUGUGAUCU [Exclusion 6 - 2:b] (puzzle: Exclusion 6) |  | 118 |  |  |  |  |
| GCAAGCUUAAUCACUAUGAACAUGAGGAUCACCCAUGUAUAAGGUAUUACUUUUGGGCCCUUUAUUACUCGUCUUAU [JR_STOV1_Sub031] (Eterna round: R97, puzzle: Sensor, turn-off variant 1) |  |  |  | 51.9 | 54.4 |  |
| CAUGUGUAAGGAUAUGACAAUGGUAUCUUCGGAUACCAUUGUCAGAAGGUACAUGAGGAUCACCCAUGUGGAUC [Ex4-3: 20] (puzzle: Exclusion 4) |  | 222 |  |  |  |  |
| AAGAGGCGGACAGGAUAUGGGAAAUUGUAAAGACCAGAAGGGUCGGCGAAAAUACAUGAGGAUCACCCAUGUGACUCAUGACCA [AK ExNG1-7.1] (Eterna round: R96, puzzle: Exclusion NG 1) |  |  |  | 913 | 290 | 311 |
| AAAAGAAGUGUUAGGAUAUGUGGAAGUAGAAAGACACAGAAGGGACAUGAGGAUCACCCAUGUGGCCAAAGAAC [Vecedies] (puzzle: Brourd's mod of Exclusion 4) | 17.3 | 15.6 | 15.5 |  |  |  |
| ACGGACCGAGGAUAUGCAUGCAGGAUACCUGGGUCCAAUGGACAUGAGGAUCACCCAUGUAGAAGGCGGAAAUA [Arinisra] (Eterna round: R97, puzzle: Exclusion 2) |  |  |  | 86.3 | 31.4 |  |
| AUCAGCUCGUCAGGAUAUACAUGCGUGCUUCGGCACGUAUGAUAGAUCACAUGAGGAUCACCCAUGUAGAAGGGACGAGCUGAU [ENG2/4-B3] (Eterna round: R96, puzzle: Exclusion NG 2) |  |  |  | 15.3 | 12.7 | 9.19 |
| AAUUAGUCAGGAUAUACAUGAGGAUCACCCAUGUAAACUUUUAGUUUAAUUUGAAUGUGUAGAAGGGACAUUAA [Ex3 #48] (Eterna round: R97, puzzle: Exclusion 3) |  |  |  | 25.4 | 29.7 |  |
| CUAAAUCAUGUAGGAUAUGCAUAGCGAAGCUAUGCAGAAGGACAUGAGGAUCACCCAUGUUCUUCCGUCUGCGUACAGACGGAA [Mat - Exclusion NG 1 - Mod of JL - D30] (Eterna round: R96, puzzle: Exclusion NG 1) |  |  |  | 268 | 33.5 | 32.4 |
| ACUGGUCGAGGAUAUACAUGAGGAUCACCCAUGUUGAUCAACUGCCGAUAGGCAGAAUGUAGAAGGCGACCAGU [E3/7-A2] (Eterna round: R97, puzzle: Exclusion 3) |  |  |  | 119 | 942 |  |
